From the DeepSol protein solubility set come the findings set out here.

The nature of this series: soluble on expression in E. coli; label from the status in PepcDB or PDB records.
Consider “MGSDKIHHHHHHMNIVSQLSPVTLSPELIARFTAIVGDKHALTDPLELEAYITEERNLYRGHSPLVLRPGSTEEVVAICKLANEARVALVPQGGNTGLVGGQTPHNGEVVISLKRMDKIREIDTSSNTITVEAGAILQRVQEKAAEVDRLFPLSLGAQGSCTIGGNLSTNAGGTAALAYGLARDMALGVEVVLADGRVMNLLSKLKKDNTGYDLRDLFIGAEGTLGIITAATLKLFPKPRAVETAFVGLQSPDDALKLLGIAQGEAAGNLTSFELIAETPLDFSVRHANNRDPLEARYPWYVLIELSSPRDDARAALESILERGFEDGIVVDAAIANSVQQQQAFWKLREEISPAQKPEGGSIKHDISVPVAAVPQFIEQANAAVVALIPGARPVPFGHLGDGNIHYNVSQPVGADKAEFLARWHDVSQVVFEVVLRLGGSISAEHGIGVMKRDELAEVKDKTAIELMRSIKALLDPHGIMNPGKVV”, for which the “soluble on expression in E. coli” value is reported as “not soluble”.
With “MDRNFKLRQMFSDYLDNKNSNSTHTPPVRVHYPLIATMSPADKARFTVKKITEVEGEVLDAPLENAHPVFFAEPQFELRWYNKPDSLAGRFQTNAEAETTSKLAQRLLTLFLKTEMLESAFFKYDDIRAIRVFFMDDREMATDRLMAILDNILSVSMTKLGHFSDKMSVTVDYELRAFMSDQKKAKRLVLEAMLKYPEFIPDSWGGESAILKWKEMKEIDVRRREADIKEMAETERKEKEKVEKNKMEMTEKIKKKDEDEKAKKEKERIDKEEKIKKEVEEAEKKKKEEKEKRRKEVKKNREEQLSINPEMSRNDKKDVVEEKSCLDKGAKDAQKKKKQQDVVDKKKEKRKLKKTRTMEASRSREVSHEEHHQPPVLSTLATPSPVPSPSVPPTAPPSTPRKPMFGAVSQFLSGRKRREPSAEKIVEPPSKNSAAATKKTVRK” the entry was “not soluble”; with “KMERKNVWHHRKKEEIEAFSKEYMEFMSKAKTERMTVKEIKRILDESGFVPLEDFAGDPMNMTVYAVNRGKAIAAFRVVDDLKRGLNLVVAHIDSPRLDFKPNPLIEDEQIALFKTHYYGGIKKYHWLSIPLEIHGVLFKNDGTEIEIHIGDKPEDPVFTIPDLLPHLDKEDAKISEKFKGENLMLIAGTIPLSGEEKEAVKTNVLKILNEMYGITEEDFVSGEIEVVPAFSPREVGMDRSLIGAYGQDDRICAYTALRALLSANPEKSIGVIFFDKEEIGSDGNTGAKARFYLKALRQILKMQGAKDSEFVLDEVLENTSVISGDVCAAVNPPYKDVHDLHNAPKLGYGVALVKYTGARGKYSTNDAHAEFVARVRKVLNEQGVIWQVATLGKVDQGGGGTIAKFFAERGSDVIDMGPALLGMHSPFEISSKADLFETYVAYRSLMEKL”, “soluble”.
As for “SSQKSLFREDWFQNGSFVSLTLYIKDVDRDESNVTFTQQTVTVNLFSARDKSIYEQTWELSHPVVAEQSLVTYFPQKVELKMKKKEEGLLWKQLTSGATLKSSDNTQSSYSSRETASLQSGRFPKQFAVEEDDDEEQDQSKDLLAFFRDIYEKSDEDTRRAMVKSFVESQGKVLSTDWKKVSSQNSRYDNE”, the entry is “soluble”; as for “MSLDEPTDGTGAGTSATEMLDSLEVKGRAPKTGYKRTQFGKAWADVDHNGCDTRNDILNRDLTGVRHKWRTHNCVVKSGKLHDPYTGKDIKFKKGKKTSTAVQIDHVVALSDAWQKGAQKLSEERRTALANDPYNLMAVQGRANQKKSDGDAATWMPSNKGFRCEYVARQIGVKHKYSLWVTQAEKEAMAKVLSSCPTQTVPDYTGVKDSTAEKTTESEQTEQTQTEQSAEQAQQTQQTTQAPAPEPAPAPAPAPQPAPQQDVYYQNCTAARAAGAAPIYQGQPGYRSQLDRDHDGVACEEGHHHHHH”, “soluble”; as for “AIAAIAEKAKGKEWTSTEKSREEDQQASNQPNSIALPGTSAKRTKEKMSVKGSKVLCPKKKAEHTDNPRPQKKIPIPPLPSKLPPVNLIHRDILRAWCQQLKLSSKGQKLDAYKRLCAFAYPNQKDFPSTAKEAKIRKSLQKKLKVEKGETSLQSSETHPPEVALPPVGEPPALENSTALLEGVNTVVVTTSAPEALLASWARISARARTPEAVESPQEASGVRWCVVHGKSLPADTDGWVHLQFHAGQAWVPEKQEGRVSALFLLPASNFPPPHLEDNMLCPKCVHRNKVLIKSLQWE”, “soluble”.
Consider “MDNDKNSIIDIVGDGINYEKLKKVEKSLCQIDIITEFMNRSRHLQGKKVNGCIMRIDETKQLLFHVIIDGPVGSIYEGGTFFADINIQPYQNHSLIPRVCFHTFIFHPNLGKYGNWDMRGIQWERRSNLEVLYNFIVEGMRNVKYDIERRNLAQLEDMSQPNISRLAKEDWPKFERTAREFVMKMAGGTINGRKTIFAETKKRRRQDFLDEDIDVIGIS”, for which the “soluble on expression in E. coli” value is on record as “not soluble”.
As for “MSLGVNFQPVAFTGRIDQSQREKKRITIPDVMKLVEEQTGGEIPCNAWYPVSFVVPISRFLSAMRNIPIPELTAHPHCGAGTYVFYEEGHFIPITNFFDVESFIELLKEITPEINGRVSRVLSLAKVIKQVPKFIDEKKGPKSVNTTRMILDLLKKGDMENTSRFHRNTLFLGTMHFQDLYNIDLERVKKCGVHYATPDGRIIPFCTYNEGHHHHHH”, the entry is “not soluble”; as for “MSDASKRAAFDQYGHAGVDPSMGGGGAGFGGANFSDIFGDVFSDFFGGGGRGGGRGGAQRGSDLRYTLELNLEEAVRGTTVSIRVPTLVNCQPCDGSGAKKGSTPSTCPTCGGIGQVRMQQGFFSVQQTCPRCHGQGKIITDPCTSCHGEGRVEEYKTLSVKVPAGVDTGDRIRLSGEGEAGTHGGPTGDLYVVISVREHEIFQRDGKHLYCEVPISYTDAALGGELEVPTLDGRVKLKIPEGTQTGKQFRLRGKGVAPVRGGGAGDLLCRVAVETPVNLSRRQRELLEELRDSLEGDSSHSPKASGWFDGVKRFFGDLLEHHHHHH”, “not soluble”.
With “ASEKVEMNLVTSQGVGQSIGSVTITETDKGLEFSPDLKALPPGEHGFHIHAKGSCQPATKDGKASAAESAGGHLDPQNTGKHEGPEGAGHLGDLPALVVNNDGKATDAVIAPRLKSLDEIKDKALMVHVGGDNMSDQPKPLGGGGERYACGVIK” the entry was “soluble”; with “NKDWTLAIRGNITYNKDKWIEGELPEQRYDWMNQYGQNILGKKGYIAEGLFTQAEIDDMARWESLSQANKATTPKPFASQFGTVKAGDIKYKDLNNDGQIDAYDKTYICRGDVPTMVYGFGFTLGWKNLSLGMMFQGTHDAERIMSGSSIQPFNGGGGSGNLYSNIDDRWTEDNPNQNAFYPRLSYGAETSSNINNFQPSTWWVRDFSFLRLKTMQISYNLPKDWVNKVRLKNAAVYVMGTNLFTLSKFKLWDPELNTDNGASYPNTTSYSVGVNFTF”, “not soluble”.
On to “SLVPRVMSTQHPDNARIPFFAASEVLNGEDEVREAYYVFSHFKCDEQMWDFEGKEADAHIVRKLLSSYYDFFSSRPLGKDFRLTMRVPNPEIEKGEAKLLAETLEMIPRSYDYVRSLGIEHPPIFEVILPMTRSAEEVMKVHAFYRDFVAGKGRFELLGEKVSDWLGDFLPEEIKVIPLFEDRDSLMRAAEISERYAEWAELDELRVFLARSDPAMNYGFVAATIYVKKALYDLSQLGISTYPILGVGSCPFRGGFSPKNLSVLDEFPSVYTFTVQSAFKYDYEFGDVRRAIKRAKEAARRKSDYVDEEHLQVAEKLKDGYRRRIAKIAEIVNRISSRIPRRRMRKLHVGLFGYSRGEEIKLPRAITFCASLYSIGLPSEIIGIAEMSDKDYEAVCEVFKNFDGMMESAMSLFNPESLKIVDLSMDFERAKELFGYEPDERHLEKTNEIIKQIDGDIKNLVVEAGILRGFLG”, for which the “soluble on expression in E. coli” value was “soluble”.
For the sequence “MSLIKCVCLVIEEQEKLLLVQSRNREKYYFPGGKIDIGETYKQALQRELNEELQLDIPESSLIYMHTVVGEAYPQKNMKTELNCFYTTADIDWSTLVPSQEITDLQWIDKKDEHKIAPAVITWIEEQQHFKNIEREGHHHHHH”, the “soluble on expression in E. coli” value is on record as “soluble”.
As to “MSLNNQDISIGKLSRLKIWITDNHLSDDQWSNTKKFIIIKITTEDGIEGWGEAFSINFREKGIAIIIKELFREISNIPNLSIKSFYNKISLLSDGHRGLDFSSATSAIEIALWDISGKLKNLPLNSLLTKSPKPNVPIYATCWSDLKKDTNDYLRQIEKFYGKKYGGIKIYPMLDSLSISIQFVEKVREIVGDELPLMLDLAVPEDLDQTKSFLKEVSSFNPYWIEEPVDGENISLLTEIKNTFNMKVVTGEKQSGLVHFRELISRNAADIFNPDISGMGGLIDIIEISNEASNNGIFISPHCWNSMSVSASAMLHVCSSIPNSEKAEIFPDYINFSKKFCELPFDIIDNKAHINKSAGLGIVIHEDILSELSIYSLDEKSNDEGHHHHHH”, the “soluble on expression in E. coli” value is “soluble”.
